Experimental data reported in US20250320304A1 (Janssen / Centocor, published 2025).

Experiments:
[1] = molecular target: T1, BCMA (BCMW37.DB.001) (UniProt Q02223 1-54, limits assumed); experiment: SPR, BCMA antigen BCMW37.DB.001
T1 construct: The SPR antigen itself is named only by its batch label
T1 sequence (looked up): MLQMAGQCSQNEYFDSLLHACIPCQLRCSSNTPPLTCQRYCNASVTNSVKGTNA

[2] = molecular target: CD3W220.001; experiment: SPR, CD3 antigen CD3W220.001
[3] = molecular target: T2, BCMA on H929-Fluc-GFP cells (UniProt Q02223 1-184); experiment: cell-based or functional assay
T2 sequence (looked up): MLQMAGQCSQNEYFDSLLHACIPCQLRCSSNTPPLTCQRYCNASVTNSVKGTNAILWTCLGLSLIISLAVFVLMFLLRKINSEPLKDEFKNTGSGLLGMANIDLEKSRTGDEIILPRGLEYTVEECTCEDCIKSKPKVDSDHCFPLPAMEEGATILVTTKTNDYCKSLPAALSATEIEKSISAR

[4] = molecular target: CD3 on human donor Pan T cells (human); experiment: cell-based or functional assay
Chain of CD3 on human donor Pan T cells (human) (chain, as listed by the source): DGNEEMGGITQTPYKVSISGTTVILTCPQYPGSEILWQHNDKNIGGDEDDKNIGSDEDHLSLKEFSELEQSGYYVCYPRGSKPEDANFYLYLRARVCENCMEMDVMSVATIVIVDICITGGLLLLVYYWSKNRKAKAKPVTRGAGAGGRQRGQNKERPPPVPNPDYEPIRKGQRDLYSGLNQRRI

B1: BCMB1055 (bispecific antibody, human IgG1, kappa, L234A L235A)
light: DIQMTQSPSSVSASVGDRVTITCKASQNVGTAVAWYQQKPGQSPKLLIYSASNRYTGVPSRFSGSGSGTDFTLTISSLQPEDFATYFCQQYGSSPWTFGGGTKVEIKRTVAAPSVFIFPPSDEQLKSGTASVVCLLNNFYPREAKVQWKVDNALQSGNSQESVTEQDSKDSTYSLSSTLTLSKADYEKHKVYACEVTHQGLSSPVTKSFNRGEC
heavy: QVQLVQSGAEVKKPGASVKVSCKASGYTFTNNVMHWVRQAPGQGLEWMGYILPYNDGTKYNQKFQGRVTLTSDKSASTAYMELSSLRSEDTAVYYCARYDYDGYFDYWGQGTTVTVSSASTKGPSVFPLAPSSKSTSGGTAALGCLVKDYFPEPVTVSWNSGALTSGVHTFPAVLQSSGLYSLSSVVTVPSSSLGTQTYICNVNHKPSNTKVDKKVEPKSCDKTHTCPPCPAPEAAGGPSVFLFPPKPKDTLMISRTPEVTCVVVSVSHEDPEVKFNWYVDGVEVHNAKTKPREEQYNSTYRVVSVLTVLHQDWLNGKEYKCKVSNKALPAPIEKTISKAKGQPREPQVYTLPPSREEMTKNQVSLSCAVKGFYPSDIAVEWESNGQPENNYKTTPPVLDSDGSFFLVSKLTVDKSRWQQGNVFSCSVMHEALHNRFTQKSLSLSPGK
chain: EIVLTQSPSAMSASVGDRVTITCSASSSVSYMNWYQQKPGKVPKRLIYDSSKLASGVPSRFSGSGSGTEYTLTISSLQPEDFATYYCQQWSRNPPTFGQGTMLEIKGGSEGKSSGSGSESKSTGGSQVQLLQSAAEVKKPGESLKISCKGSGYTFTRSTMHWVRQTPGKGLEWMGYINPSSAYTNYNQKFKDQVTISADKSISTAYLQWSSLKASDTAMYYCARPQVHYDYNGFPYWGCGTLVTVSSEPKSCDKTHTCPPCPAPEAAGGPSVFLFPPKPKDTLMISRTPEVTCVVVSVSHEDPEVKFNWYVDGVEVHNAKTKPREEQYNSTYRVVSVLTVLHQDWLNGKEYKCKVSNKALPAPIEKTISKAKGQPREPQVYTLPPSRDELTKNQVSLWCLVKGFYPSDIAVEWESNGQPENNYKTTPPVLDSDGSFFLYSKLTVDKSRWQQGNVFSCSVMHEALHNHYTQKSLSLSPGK
notes: Humanized anti-BCMA Fab × anti-CD3 scFv-Fc, knob-in-hole Fc; also called BCMB1055.001; BCMB749h × Cris7b scFv
- Kd [1]: 1.77 nM
- koff [1]: 0.0223 s⁻¹
- kon [1]: 1.26e+07 M⁻¹ s⁻¹
- Kd [2]: 746 nM
- koff [2]: 0.199 s⁻¹
- kon [2]: 267000 M⁻¹ s⁻¹
- Bottom of fit, % Cytolysis [3]: 16.1%
- EC50 (nM), % Cytolysis [3]: 0.0301 nM
- Top of fit (Cmax), % Cytolysis [3]: 93.2%
- Bottom of fit, CD4/CD25+ T cell activation [4]: 7.46
- Bottom of fit, CD8/CD25+ T cell activation [4]: 0.97
- EC50 (nM), CD4/CD25+ T cell activation [4]: 0.0447 nM
- EC50 (nM), CD8/CD25+ T cell activation [4]: 0.0859 nM
- Top of fit (Cmax), CD4/CD25+ T cell activation [4]: 87.4
- Top of fit (Cmax), CD8/CD25+ T cell activation [4]: 81.2

B2: BCMB1049 (bispecific antibody, human IgG1, kappa, L234A L235A)
light: DIQMTQSPSSVSASVGDRVTITCKASQNVGTAVAWYQQKPGQSPKLLIYSASNRYTGVPSRFSGSGSGTDFTLTISSLQPEDFATYFCQQYGSSPWTFGGGTKVEIKRTVAAPSVFIFPPSDEQLKSGTASVVCLLNNFYPREAKVQWKVDNALQSGNSQESVTEQDSKDSTYSLSSTLTLSKADYEKHKVYACEVTHQGLSSPVTKSFNRGEC
heavy: QVQLVQSGAEVKKPGASVKVSCKASGYTFTNNVMHWVRQAPGQGLEWMGYILPYNDGTKYNQKFQGRVTLTSDKSASTAYMELSSLRSEDTAVYYCARYDYDGYFDYWGQGTTVTVSSASTKGPSVFPLAPSSKSTSGGTAALGCLVKDYFPEPVTVSWNSGALTSGVHTFPAVLQSSGLYSLSSVVTVPSSSLGTQTYICNVNHKPSNTKVDKKVEPKSCDKTHTCPPCPAPEAAGGPSVFLFPPKPKDTLMISRTPEVTCVVVSVSHEDPEVKFNWYVDGVEVHNAKTKPREEQYNSTYRVVSVLTVLHQDWLNGKEYKCKVSNKALPAPIEKTISKAKGQPREPQVYTLPPSREEMTKNQVSLSCAVKGFYPSDIAVEWESNGQPENNYKTTPPVLDSDGSFFLVSKLTVDKSRWQQGNVFSCSVMHEALHNRFTQKSLSLSPGK
chain: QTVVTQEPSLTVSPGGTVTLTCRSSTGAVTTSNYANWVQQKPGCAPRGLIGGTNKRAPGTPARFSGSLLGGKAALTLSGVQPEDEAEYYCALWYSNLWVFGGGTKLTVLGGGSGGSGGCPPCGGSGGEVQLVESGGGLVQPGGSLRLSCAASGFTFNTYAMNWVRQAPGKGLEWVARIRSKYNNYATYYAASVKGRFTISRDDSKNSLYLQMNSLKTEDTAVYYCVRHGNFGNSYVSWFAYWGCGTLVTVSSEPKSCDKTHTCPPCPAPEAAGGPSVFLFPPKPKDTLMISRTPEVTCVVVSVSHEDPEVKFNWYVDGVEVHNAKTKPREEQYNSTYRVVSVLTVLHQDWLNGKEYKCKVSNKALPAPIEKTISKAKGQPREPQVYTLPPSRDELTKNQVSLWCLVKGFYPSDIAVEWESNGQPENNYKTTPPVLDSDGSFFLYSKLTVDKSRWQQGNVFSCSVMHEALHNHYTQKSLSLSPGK
notes: Humanized anti-BCMA Fab × stapled anti-CD3 (CD3B219) scFv-Fc, knob-in-hole Fc; also called BCMB1049.001; BCMB749h × CD3B219 spFv
- Kd [1]: 1.59 nM
- koff [1]: 0.0219 s⁻¹
- kon [1]: 1.38e+07 M⁻¹ s⁻¹
- Kd [2]: 23.6 nM
- koff [2]: 0.00205 s⁻¹
- kon [2]: 86900 M⁻¹ s⁻¹
- Bottom of fit, % Cytolysis [3]: 16.5%
- EC50 (nM), % Cytolysis [3]: ~0.0348 nM
- Top of fit (Cmax), % Cytolysis [3]: 92.7%
- Bottom of fit, CD4/CD25+ T cell activation [4]: 8.58
- Bottom of fit, CD8/CD25+ T cell activation [4]: 1.65
- EC50 (nM), CD4/CD25+ T cell activation [4]: 0.0409 nM
- EC50 (nM), CD8/CD25+ T cell activation [4]: 0.0744 nM
- Top of fit (Cmax), CD4/CD25+ T cell activation [4]: 86.8
- Top of fit (Cmax), CD8/CD25+ T cell activation [4]: 77

B3: BCMB1050 (bispecific antibody, human IgG1, kappa, L234A L235A)
light: DIQMTQSPSSVSASVGDRVTITCKASQNVGTAVAWYQQKPGQSPKLLIYSASNRYTGVPSRFSGSGSGTDFTLTISSLQPEDFATYFCQQYGSSPWTFGGGTKVEIKRTVAAPSVFIFPPSDEQLKSGTASVVCLLNNFYPREAKVQWKVDNALQSGNSQESVTEQDSKDSTYSLSSTLTLSKADYEKHKVYACEVTHQGLSSPVTKSFNRGEC
heavy: QVQLVQSGAEVKKPGASVKVSCKASGYTFTNNVMHWVRQAPGQGLEWMGYILPYNDGTKYNQKFQGRVTLTSDKSASTAYMELSSLRSEDTAVYYCARYDYDGYFDYWGQGTTVTVSSASTKGPSVFPLAPSSKSTSGGTAALGCLVKDYFPEPVTVSWNSGALTSGVHTFPAVLQSSGLYSLSSVVTVPSSSLGTQTYICNVNHKPSNTKVDKKVEPKSCDKTHTCPPCPAPEAAGGPSVFLFPPKPKDTLMISRTPEVTCVVVSVSHEDPEVKFNWYVDGVEVHNAKTKPREEQYNSTYRVVSVLTVLHQDWLNGKEYKCKVSNKALPAPIEKTISKAKGQPREPQVYTLPPSREEMTKNQVSLSCAVKGFYPSDIAVEWESNGQPENNYKTTPPVLDSDGSFFLVSKLTVDKSRWQQGNVFSCSVMHEALHNRFTQKSLSLSPGK
chain: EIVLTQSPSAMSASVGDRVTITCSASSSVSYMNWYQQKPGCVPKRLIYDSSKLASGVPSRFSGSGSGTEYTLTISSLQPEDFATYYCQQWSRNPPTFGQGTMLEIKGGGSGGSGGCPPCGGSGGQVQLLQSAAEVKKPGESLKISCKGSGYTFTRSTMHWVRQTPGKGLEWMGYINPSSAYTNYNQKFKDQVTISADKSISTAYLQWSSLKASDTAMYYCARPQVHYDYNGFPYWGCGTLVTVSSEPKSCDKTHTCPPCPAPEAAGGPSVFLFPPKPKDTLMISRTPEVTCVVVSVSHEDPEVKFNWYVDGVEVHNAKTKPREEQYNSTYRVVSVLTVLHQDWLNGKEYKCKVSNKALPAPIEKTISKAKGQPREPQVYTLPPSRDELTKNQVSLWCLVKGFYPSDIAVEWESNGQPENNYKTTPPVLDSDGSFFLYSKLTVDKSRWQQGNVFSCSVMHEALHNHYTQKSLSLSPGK
notes: Humanized anti-BCMA Fab × stapled anti-CD3 scFv-Fc, knob-in-hole Fc; also called BCMB1050.001; BCMB749h × Cris7b spFv
- Kd [1]: 1.75 nM
- koff [1]: 0.021 s⁻¹
- kon [1]: 1.2e+07 M⁻¹ s⁻¹
- Kd [2]: 657 nM
- koff [2]: 0.121 s⁻¹
- kon [2]: 184000 M⁻¹ s⁻¹
- Bottom of fit, % Cytolysis [3]: 17%
- EC50 (nM), % Cytolysis [3]: 0.0141 nM
- Top of fit (Cmax), % Cytolysis [3]: 94.6%
- Bottom of fit, CD4/CD25+ T cell activation [4]: 8.05
- Bottom of fit, CD8/CD25+ T cell activation [4]: 1.32
- EC50 (nM), CD4/CD25+ T cell activation [4]: 0.0222 nM
- EC50 (nM), CD8/CD25+ T cell activation [4]: 0.0343 nM
- Top of fit (Cmax), CD4/CD25+ T cell activation [4]: 86.4
- Top of fit (Cmax), CD8/CD25+ T cell activation [4]: 80.1

B4: BCMB1052 (bispecific antibody, human IgG1, kappa, L234A L235A)
light: DIVMTQSQKFMSTTVGDRVSITCKASQNVGTAVAWYQQKPGQSPKLLIYSASNRYTGVPDRFTGTGSGTDFTLTIINVQSEDLADYFCQQYGSSPWTFGGGTKLEIKRTVAAPSVFIFPPSDEQLKSGTASVVCLLNNFYPREAKVQWKVDNALQSGNSQESVTEQDSKDSTYSLSSTLTLSKADYEKHKVYACEVTHQGLSSPVTKSFNRGEC
heavy: QVQLQQSGAELVKPGASVKLSCKASGYTFTNNVMHWVRQKPGQGLEWIGYILPYNDGTKYNEKFKGKATLTSDKSSSTAYMELSSLTSEDSAVYYCARYDYDGYFDYWGQGTTLTVSSASTKGPSVFPLAPSSKSTSGGTAALGCLVKDYFPEPVTVSWNSGALTSGVHTFPAVLQSSGLYSLSSVVTVPSSSLGTQTYICNVNHKPSNTKVDKKVEPKSCDKTHTCPPCPAPEAAGGPSVFLFPPKPKDTLMISRTPEVTCVVVSVSHEDPEVKFNWYVDGVEVHNAKTKPREEQYNSTYRVVSVLTVLHQDWLNGKEYKCKVSNKALPAPIEKTISKAKGQPREPQVYTLPPSREEMTKNQVSLSCAVKGFYPSDIAVEWESNGQPENNYKTTPPVLDSDGSFFLVSKLTVDKSRWQQGNVFSCSVMHEALHNRFTQKSLSLSPGK
chain: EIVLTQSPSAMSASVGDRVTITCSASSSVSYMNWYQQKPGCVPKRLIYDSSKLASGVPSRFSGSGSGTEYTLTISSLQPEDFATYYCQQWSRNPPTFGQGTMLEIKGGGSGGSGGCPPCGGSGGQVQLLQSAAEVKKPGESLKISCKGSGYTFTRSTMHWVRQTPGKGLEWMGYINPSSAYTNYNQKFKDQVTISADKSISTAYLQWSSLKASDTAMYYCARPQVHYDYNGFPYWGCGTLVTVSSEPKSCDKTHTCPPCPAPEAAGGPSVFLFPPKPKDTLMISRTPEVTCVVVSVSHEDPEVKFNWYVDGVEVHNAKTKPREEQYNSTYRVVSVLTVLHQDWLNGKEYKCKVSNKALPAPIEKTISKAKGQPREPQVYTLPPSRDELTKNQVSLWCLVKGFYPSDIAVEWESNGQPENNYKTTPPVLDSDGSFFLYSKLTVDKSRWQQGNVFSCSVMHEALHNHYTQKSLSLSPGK
notes: Murine anti-BCMA Fab × stapled anti-CD3 scFv-Fc, knob-in-hole Fc; also called BCMB1052.001; BCMB749 × Cris7b spFv
- Kd [1]: 2.74 nM
- koff [1]: 0.039 s⁻¹
- kon [1]: 1.42e+07 M⁻¹ s⁻¹
- Kd [2]: 502 nM
- koff [2]: 0.105 s⁻¹
- kon [2]: 210000 M⁻¹ s⁻¹
- Bottom of fit, % Cytolysis [3]: 15.4%
- EC50 (nM), % Cytolysis [3]: 0.0489 nM
- Top of fit (Cmax), % Cytolysis [3]: 93.4%
- Bottom of fit, CD4/CD25+ T cell activation [4]: 8.12
- Bottom of fit, CD8/CD25+ T cell activation [4]: 0.941
- EC50 (nM), CD4/CD25+ T cell activation [4]: 0.0627 nM
- EC50 (nM), CD8/CD25+ T cell activation [4]: 0.117 nM
- Top of fit (Cmax), CD4/CD25+ T cell activation [4]: 80.9
- Top of fit (Cmax), CD8/CD25+ T cell activation [4]: 73.5

B5: BCMB1051 (bispecific antibody, human IgG1, kappa, L234A L235A)
light: DIVMTQSQKFMSTTVGDRVSITCKASQNVGTAVAWYQQKPGQSPKLLIYSASNRYTGVPDRFTGTGSGTDFTLTIINVQSEDLADYFCQQYGSSPWTFGGGTKLEIKRTVAAPSVFIFPPSDEQLKSGTASVVCLLNNFYPREAKVQWKVDNALQSGNSQESVTEQDSKDSTYSLSSTLTLSKADYEKHKVYACEVTHQGLSSPVTKSFNRGEC
heavy: QVQLQQSGAELVKPGASVKLSCKASGYTFTNNVMHWVRQKPGQGLEWIGYILPYNDGTKYNEKFKGKATLTSDKSSSTAYMELSSLTSEDSAVYYCARYDYDGYFDYWGQGTTLTVSSASTKGPSVFPLAPSSKSTSGGTAALGCLVKDYFPEPVTVSWNSGALTSGVHTFPAVLQSSGLYSLSSVVTVPSSSLGTQTYICNVNHKPSNTKVDKKVEPKSCDKTHTCPPCPAPEAAGGPSVFLFPPKPKDTLMISRTPEVTCVVVSVSHEDPEVKFNWYVDGVEVHNAKTKPREEQYNSTYRVVSVLTVLHQDWLNGKEYKCKVSNKALPAPIEKTISKAKGQPREPQVYTLPPSREEMTKNQVSLSCAVKGFYPSDIAVEWESNGQPENNYKTTPPVLDSDGSFFLVSKLTVDKSRWQQGNVFSCSVMHEALHNRFTQKSLSLSPGK
chain: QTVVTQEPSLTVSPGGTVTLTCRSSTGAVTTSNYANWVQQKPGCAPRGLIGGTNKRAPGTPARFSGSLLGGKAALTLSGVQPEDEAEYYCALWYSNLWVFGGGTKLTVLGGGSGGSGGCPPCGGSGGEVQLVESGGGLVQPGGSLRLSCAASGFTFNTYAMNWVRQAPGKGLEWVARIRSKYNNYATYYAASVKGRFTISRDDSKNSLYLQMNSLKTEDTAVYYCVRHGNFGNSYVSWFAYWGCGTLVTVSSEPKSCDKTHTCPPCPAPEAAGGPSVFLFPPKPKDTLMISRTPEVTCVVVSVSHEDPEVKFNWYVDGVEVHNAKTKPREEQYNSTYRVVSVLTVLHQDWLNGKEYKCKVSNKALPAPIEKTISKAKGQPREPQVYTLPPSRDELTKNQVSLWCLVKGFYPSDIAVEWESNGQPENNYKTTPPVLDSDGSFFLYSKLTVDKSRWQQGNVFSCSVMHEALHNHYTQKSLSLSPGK
notes: Murine anti-BCMA Fab × stapled anti-CD3 (CD3B219) scFv-Fc, knob-in-hole Fc; also called BCMB1051.001; BCMB749 × CD3B219 spfv
- Kd [1]: 2.47 nM
- koff [1]: 0.0413 s⁻¹
- kon [1]: 1.67e+07 M⁻¹ s⁻¹
- Kd [2]: 21.5 nM
- koff [2]: 0.00171 s⁻¹
- kon [2]: 79500 M⁻¹ s⁻¹
- Bottom of fit, % Cytolysis [3]: 16.7%
- EC50 (nM), % Cytolysis [3]: 0.0594 nM
- Top of fit (Cmax), % Cytolysis [3]: 92.4%
- Bottom of fit, CD4/CD25+ T cell activation [4]: 8.67
- Bottom of fit, CD8/CD25+ T cell activation [4]: 1.67
- EC50 (nM), CD4/CD25+ T cell activation [4]: 0.087 nM
- EC50 (nM), CD8/CD25+ T cell activation [4]: 0.144 nM
- Top of fit (Cmax), CD4/CD25+ T cell activation [4]: 84.9
- Top of fit (Cmax), CD8/CD25+ T cell activation [4]: 74
